Assay [1] addresses PKSIII Mo29 Std (type III polyketide synthase of Naganishia uzbekistanensis strain Mo29, whole protein with the C-terminus extension) (Naganishia uzbekistanensis strain Mo29 (UBOCC-A-208024)). Put plainly: SEC + other: dynamic light scattering; Sephacryl-200 gel filtration column, 50 mM Tris-HCl pH 7.5, 200 mM NaCl, size calculated with marker; DLS on a DynaPro-801; monomer to dimer.

Assay [2] deals with PKSIII Mo29 Red (truncated/reduced type III polyketide synthase of Naganishia uzbekistanensis strain Mo29, without the 74 aa C-terminus extension) (Naganishia uzbekistanensis strain Mo29 (UBOCC-A-208024)). Described as above.

As a reminder, the stoichiometry N is a count of units in the complex or per binding partner.

“PKSIII Mo29 Std (type III polyketide synthase of Naganishia uzbekistanensis strain Mo29, whole protein with the C-terminus extension) (enzyme)”: the stoichiometry N in assay [1] was 2.

For the substance “PKSIII Mo29 Red (truncated/reduced type III polyketide synthase of Naganishia uzbekistanensis strain Mo29, without the 74 aa C-terminus extension) (domain or fragment)”, the stoichiometry N in assay [2] was 2.

The values are drawn from PMC7763939.
